Test results from patent publication US20050130898A1 (HIDECHIKA OKADA, published 2005).
Values belong to the binder of their own block, whether it stands above or below them. Bridge positions count the residues as written; N and C are the ends. Ends that are not written are not given here. I, II: the chains in the order shown.

What was measured:
Carboxypeptidase R (CPR) [1] = target: T1, Carboxypeptidase R (CPR) (human, UniProt Q96IY4 115-423); assay: enzyme kinetics, CPR hydrolysis of hippuryl-L-arginine, competitive inhibition
T1 construct: domain: 309-amino acid enzyme (CPR; 35 kDa) after cleavage at Arg92; also called plasma carboxypeptidase B (CPB); carboxypeptidase U (CPU)
T1 sequence (looked up): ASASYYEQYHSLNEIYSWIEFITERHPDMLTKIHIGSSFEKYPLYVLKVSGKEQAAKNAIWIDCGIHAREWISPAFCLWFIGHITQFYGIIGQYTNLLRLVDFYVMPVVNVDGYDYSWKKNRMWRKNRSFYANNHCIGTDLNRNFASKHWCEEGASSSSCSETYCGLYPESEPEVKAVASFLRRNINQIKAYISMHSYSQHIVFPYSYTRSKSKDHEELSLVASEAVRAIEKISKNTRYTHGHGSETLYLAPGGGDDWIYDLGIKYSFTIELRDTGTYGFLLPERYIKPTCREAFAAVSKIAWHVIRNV
Procedure: (§1) The reduced inhibitory activity of this PCI-derived peptide may be attributed to the absence of two of the three disulfide bridges founds in wild type PCI, effectively resulting in increased mobility of all residues.
(§2) The activity of the CPR inhibitors was determined against purified CPR using hippuryl-L-arginine as the substrate. The peptides PCI-2K-R, CPI-2KR, PCI (500, 250/125/62.5, 50 mg/ml, respectively) or Tris-HCl buffer (50 mM; pH 7.5) were added to active CPR (40-320 mg/ml) at a 1:7 ratio. After thorough mixing, […] was incubated with various concentrations of hippuryl-L-arginine (1.2-6.0 mM), for 15 minutes at 37° C. The reaction was stopped with the addition of sodium phosphate buffer ([…]; 0.25 M), immediately followed by 3% cyanuric chloride in 1,4-dioxane ([…]). After mixing well, the generation of hippuric acid was determined by measuring the OD at 405 nm on a SpectraMAX 250 Microplate Spectrophotometer (Molecular Device Corporation, Sunnyvale, Calif., USA). Hippuric acid (0-2.0 mM) in Tris buffer was used as the standard.
(§3) A kinetics analysis of the CPR-catalysed hydrolysis of hippuryl-L-arginine in the absence and presence of inhibitory molecules was performed. The Lineweaver-Burk reciprocal plot, based on rearrangement of the Henri-Michaelis-Menten equation into a linear form, was applied: […]

Carboxypeptidase R (CPR) [2] = target: T1, Carboxypeptidase R (CPR); assay: enzyme kinetics, Ki against that of PCI
Procedure: as §1, §2, §3

[3] = target: T2, CPI-2KR (linear 9-mer peptide Cys-Lys-Pro-Ala-Lys-Asn-Ala-Arg-Cys)
T2 chain: CKPAKNARC

Carboxypeptidase R (CPR) [4] = target: T1, Carboxypeptidase R (CPR); assay: enzyme kinetics, Ki against that of PCI-2K-R
Procedure: (§4) In order to gain insight into the inhibitory mechanism of CPI-2KR against CPR, a classical Henri-Michaelis-Menten kinetics analysis was performed. Since the Lineweaver-Burke plot (FIG. 3C) is prone to error, particularly at low concentrations of inhibitor and substrate, the Dixon plot (1/v versus [I]) was employed to evaluate the inhibitory mechanism of CPI-2KR (FIG. 3D). Replotting of the slopes of the Dixon plot against 1/[S] confirmed that CPR-2KR is a competitive inhibitor of CPR given that the line went through the origin (FIG. 3D insert). The Km Kmₐₚₚ and Vmax were determined from the data obtained for no inhibitor and the highest inhibitor concentration (253 nM) from the Lineweaver-Burke plots (FIG. 3E) . These values were in turn used to calculate the dissociation constant of CPI-2KR (Ki).
(§5) The activity of the CPR inhibitors was determined against purified CPR using hippuryl-L-arginine as the substrate. The peptides PCI-2K-R, CPI-2KR, PCI (500, 250/125/62.5, 50 mg/ml, respectively) or Tris-HCl buffer (50 mM; pH 7.5) were added to active CPR (40-320 mg/ml) at a 1:7 ratio. […] After mixing well, the generation of hippuric acid was determined by measuring the OD at 405 nm on a SpectraMAX 250 Microplate Spectrophotometer (Molecular Device Corporation, Sunnyvale, Calif., USA). […]

Carboxypeptidase R (CPR) [5] = target: T1, Carboxypeptidase R (CPR); assay: cell-based or functional assay
Carboxypeptidase R (CPR) [6] = target: T1, Carboxypeptidase R (CPR); assay: enzyme kinetics, CPR hydrolysis of hippuryl-L-arginine, Lineweaver-Burke at 253 nM inhibitor
Procedure: as §4, §5

B2: Carboxypeptidase R (CPR) (protein)
chain: T1 sequence (looked up)
Dixon plot and slope replot, CPR-catalysed hydrolysis of hippuryl-L-arginine [3]: confirmed that CPR-2KR is a competitive inhibitor of CPR

B4: Carboxypeptidase N (CPN) (protein)
chain 1: CPMGCDCFVQEVFCSDEELATVPLDIPPYTKNIIFVETSFTTLETRAFGSNPNLTKVVFLNTQLCQFRPDAFGGLPRLEDLEVTGSSFLNLSTNIFSNLTSLGKLTLNFNMLEALPEGLFQHLAALESLHLQGNQLQALPRRLFQPLTHLKTLNLAQNLLAQLPEELFHPLTSLQTLKLSNNALSGLPQGVFGKLGSLQELFLDSNNISELPPQVFSQLFCLERLWLQRNAITHLPLSIFASLGNLTFLSLQWNMLRVLPAGLFAHTPCLVGLSLTHNQLETVAEGTFAHLSNLRSLMLSYNAITHLPAGIFRDLEELVKLYLGSNNLTALHPALFQNLSKLELLSLSKNQLTTLPEGIFDTNYNLFNLALHGNPWQCDCHLAYLFNWLQQYTDRLLNIQTYCAGPAYLKGQVVPALNEKQLVCPVTRDHLGFQVTWPDESKAGGSWDLAVQERAARSQCTYSNPEGTVVLACDQAQCRWLNVQLSPQQGSLGLQYNASQEWDLRSSCGSLRLTVSIEARAAGP
chain 2: VTFRHHRYDDLVRTLYKVQNECPGITRVYSIGRSVEGRHLYVLEFSDHPGIHEPLEPEVKYVGNMHGNEALGRELMLQLSEFLCEEFRNRNQRIVQLIQDTRIHILPSMNPDGYEVAAAQGPNKPGYLVGRNNANGVDLNRNFPDLNTYIYYNEKYGGPNHHLPLPDNWKSQVEPETRAVIRWMHSFNFVLSANLHGGAVVANYPYDKSFEHRVRGVRRTASTPTPDDKLFQKLAKVYSYAHGWMFQGWNCGDYFPDGITNGASWYSLSKGMQDFNYLHTNCFEITLELSCDKFPPEEELQREWLGNREALIQFLEQVHQGIKGMVLDENYNNLANAVISVSGINHDVTSGDHGDYFRLLLPGIYTVSATAPGYDPETVTVTVGPAEPTLVNFHLKRSIPQVSPVRRAPSRRHGVRAKVQPQARKKEMEMRQLQRGPA
CPN-catalysed hydrolysis of hippuryl-L-arginine [3]: CPI-2KR did not exhibit any inhibitory activity against CPN at 506 nM

Continued, in another order:

Ki (Carboxypeptidase R (CPR) [1]): 407 nM
fold lower inhibitory activity compared to PCI (Carboxypeptidase R (CPR) [2]): 290 fold
B1: PCI-2K-R (heterodimer of PCI-2K and PCI-R joined by a disulfide bond) (peptide)
chain 1: NKPCKTHDD-NH2
chain 2: QACWNSART-NH2
modifications: disulfide I:4-II:3; N-terminus assumed
SMILES: C[C@H](NC(=O)[C@H](CO)NC(=O)[C@H](CC(N)=O)NC(=O)[C@H](Cc1c[nH]c2ccccc12)NC(=O)[C@H](CSSC[C@H](NC(=O)[C@@H]1CCCN1C(=O)[C@H](CCCCN)NC(=O)[C@@H](N)CC(N)=O)C(=O)N[C@@H](CCCCN)C(=O)N[C@H](C(=O)N[C@@H](Cc1c[nH]cn1)C(=O)N[C@@H](CC(=O)O)C(=O)N[C@@H](CC(=O)O)C(N)=O)[C@@H](C)O)NC(=O)[C@H](C)NC(=O)[C@@H](N)CCC(N)=O)C(=O)N[C@@H](CCCNC(=N)N)C(=O)N[C@H](C(N)=O)[C@@H](C)O
notes: also called CPI-2K-R (label in claim 5)

fold stronger binding affinity than PCI-2K-R (Carboxypeptidase R (CPR) [4]): ~46 fold
effective inhibitory concentration relative to PCI (fold) (Carboxypeptidase R (CPR) [5]): 10 fold
fold higher Ki than that of PCI (Carboxypeptidase R (CPR) [2]): 6 fold
Ki (Carboxypeptidase R (CPR) [6]): 8.8 nM
B3: CPI-2KR (linear 9-mer peptide Cys-Lys-Pro-Ala-Lys-Asn-Ala-Arg-Cys) (peptide)
peptide: CKPAKNARC-NH2
modifications: cysteine pairing not given here
notes: Linear form, no disulfide between the terminal Cys residues
effective inhibitory concentration, TM-induced retardation of t-PA-induced fibrinolysis (Carboxypeptidase R (CPR) [5]): 126 nM

Ki (Carboxypeptidase R (CPR) [1]): 1.4 nM
Binder: QQHADPICNKPCKTHDDCSGAWFCQACWNSARTCGPYVG (other, UniProt P01075 1-39, looked up, disulfide 12-27, 18-34, 8-24, mature) [potato carboxypeptidase inhibitor (PCI)]
reversal of TM-induced suppression of t-PA-induced fibrinolysis in human plasma (Carboxypeptidase R (CPR) [5]): 12 nM
